Key:
[1] = molecular target: T1, Human IL-2Rβ/γ (intermediate affinity IL-2 receptor) (human, UniProt P14784 27-551; P31785 23-369); experiment: cell-based or functional assay
T1 sequence (looked up) 1: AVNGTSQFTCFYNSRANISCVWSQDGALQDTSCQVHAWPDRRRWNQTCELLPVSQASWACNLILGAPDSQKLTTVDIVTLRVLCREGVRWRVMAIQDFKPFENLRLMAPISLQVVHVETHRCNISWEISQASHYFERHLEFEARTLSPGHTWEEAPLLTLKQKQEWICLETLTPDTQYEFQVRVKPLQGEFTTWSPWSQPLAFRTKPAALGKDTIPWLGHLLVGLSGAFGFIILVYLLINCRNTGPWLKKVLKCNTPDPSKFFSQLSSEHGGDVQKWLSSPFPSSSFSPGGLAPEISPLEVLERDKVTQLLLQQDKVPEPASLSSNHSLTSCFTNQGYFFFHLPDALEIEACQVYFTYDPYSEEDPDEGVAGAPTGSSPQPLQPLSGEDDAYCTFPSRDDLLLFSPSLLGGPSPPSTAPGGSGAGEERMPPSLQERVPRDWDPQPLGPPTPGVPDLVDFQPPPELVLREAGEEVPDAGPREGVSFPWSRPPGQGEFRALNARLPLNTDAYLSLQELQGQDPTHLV
T1 sequence (looked up) 2: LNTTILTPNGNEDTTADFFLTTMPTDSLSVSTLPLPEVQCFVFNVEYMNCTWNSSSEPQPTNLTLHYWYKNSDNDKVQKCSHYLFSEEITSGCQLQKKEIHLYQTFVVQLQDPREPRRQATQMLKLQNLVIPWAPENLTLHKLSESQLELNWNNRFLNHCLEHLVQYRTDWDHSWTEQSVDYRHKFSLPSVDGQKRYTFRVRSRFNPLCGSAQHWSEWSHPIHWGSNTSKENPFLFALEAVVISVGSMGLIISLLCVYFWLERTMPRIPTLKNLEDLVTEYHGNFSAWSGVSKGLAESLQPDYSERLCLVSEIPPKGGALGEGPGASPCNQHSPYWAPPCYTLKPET

[2] = molecular target: T2, Human IL-2Rα/β/γ complex (high affinity IL-2 receptor) (human, UniProt P01589 22-272; P14784 27-551; P31785 23-369); experiment: cell-based or functional assay
T2 sequence (looked up) 1: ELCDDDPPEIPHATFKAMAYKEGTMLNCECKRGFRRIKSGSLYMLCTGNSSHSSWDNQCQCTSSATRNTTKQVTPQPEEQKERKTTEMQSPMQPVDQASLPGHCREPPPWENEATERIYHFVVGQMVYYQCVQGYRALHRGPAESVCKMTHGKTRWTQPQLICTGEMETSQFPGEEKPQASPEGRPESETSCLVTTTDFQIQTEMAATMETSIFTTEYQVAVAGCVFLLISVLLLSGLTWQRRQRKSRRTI
T2 sequence (looked up) 2: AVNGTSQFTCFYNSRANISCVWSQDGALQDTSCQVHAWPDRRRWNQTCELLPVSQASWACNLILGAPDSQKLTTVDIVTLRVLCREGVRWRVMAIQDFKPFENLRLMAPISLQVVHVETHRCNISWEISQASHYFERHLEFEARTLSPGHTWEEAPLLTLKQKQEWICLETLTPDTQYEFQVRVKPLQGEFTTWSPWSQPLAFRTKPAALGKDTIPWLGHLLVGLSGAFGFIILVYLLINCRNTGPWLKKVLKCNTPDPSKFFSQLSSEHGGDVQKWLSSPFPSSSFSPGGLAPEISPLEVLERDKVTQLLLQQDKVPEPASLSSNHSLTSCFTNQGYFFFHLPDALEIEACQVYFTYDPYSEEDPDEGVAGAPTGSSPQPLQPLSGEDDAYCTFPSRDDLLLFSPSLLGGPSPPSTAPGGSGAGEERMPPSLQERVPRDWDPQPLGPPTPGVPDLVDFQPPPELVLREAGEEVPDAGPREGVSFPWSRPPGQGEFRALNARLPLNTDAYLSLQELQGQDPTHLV
T2 sequence (looked up) 3: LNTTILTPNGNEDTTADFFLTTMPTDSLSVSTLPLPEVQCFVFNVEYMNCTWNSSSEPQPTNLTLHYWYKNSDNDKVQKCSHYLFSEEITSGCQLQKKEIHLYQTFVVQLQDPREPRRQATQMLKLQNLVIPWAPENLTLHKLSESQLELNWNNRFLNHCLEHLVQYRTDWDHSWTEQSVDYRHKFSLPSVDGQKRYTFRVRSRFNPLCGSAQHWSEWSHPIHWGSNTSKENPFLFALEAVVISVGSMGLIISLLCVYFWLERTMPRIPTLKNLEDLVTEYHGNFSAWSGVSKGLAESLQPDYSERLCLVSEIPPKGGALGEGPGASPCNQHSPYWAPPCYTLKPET

[3] = molecular target: T3, W3XX115-hPro1.ECD.His, IL2Rα ECD (Homo sapiens (Human), UniProt P01589 22-213); experiment: SPR Biacore 8K; variant captured via anti-human Fc, IL-2Rα ECD-His injected; steady state
T3 construct: Entry includes the C-terminal 6xHis tag; also called CD25
T3 sequence: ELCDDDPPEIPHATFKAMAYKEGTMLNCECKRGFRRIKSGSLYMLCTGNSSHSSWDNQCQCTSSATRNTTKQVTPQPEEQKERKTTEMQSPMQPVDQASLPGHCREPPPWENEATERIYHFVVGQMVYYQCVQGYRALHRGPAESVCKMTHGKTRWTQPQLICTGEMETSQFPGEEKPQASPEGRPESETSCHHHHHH
Protocol: (§1) IL-2 variants binding affinity to IL-2 receptor were detected by SPR using Biacore 8K. For IL-2Rα binding assay, each variant was captured on anti-human Fc immobilized CM5 sensor chip (cytiva). W3XX115-hPro1.ECD.His at different concentrations were injected over the sensor chip at a flow rate of 30 uL/min for an association phase of 60 s, followed by 90 s dissociation. The chip was then regenerated by 10 mM Glycine-HCl pH1.5 after each binding cycle. For IL-2Rγ binding assay, IL-2 variants were mixed with W369-hPro2.ECD.His as 1:1 before assay, were detected by SPR using Biacore 8K. W3XX115-hPro1.ECD.His was captured on anti-His immobilized CM5 sensor chip (cytiva). The mixture were injected over the sensor chip as described above. The sensorgrams of blank surface and buffer channel were subtracted from the test sensorgrams. The experimental data was fitted by steady state affinity model. Molecular weight of W3XX115-hPro1.ECD.His or W369-hPro1.ECD.His was used to calculate the molar concentration of analyte.
(§2) For T3U0.E44-1 and T2U0.E44-33, no binding to IL-2Rα was detected.

[4] = molecular target: T2, Human IL-2Rα/β/γ complex (high affinity …); experiment: FACS, MJ20 cells; EC50 fold vs T2U0.E44-1
Protocol: (§3) Human cutaneous T cell lymphoma HH cells, malignant non-Hodgkin's lymphoma NK92 cells and cutaneous T cell lymphoma MJ20 cells were used for binding assay. They both constitutively express IL-2Rβ (CD122) and […] (CD132), and NK92 and MJ20 also expresses IL-2Rα (CD25). HH, NK92 and MJ20 cells were cultured following ATCC guidance, then transferred to a 96-plate for binding analysis. Cells were incubated with IL-2/Fc fusion proteins at the indicated concentrations for 30 min at 4° C. to avoid internalization. Binding was detected by 2nd antibody of PE-anti-human Fc at 4° C. for another 30 min. The median fluorescence intensity (MFI) on HH and NK92 cells was measured using FACS.
Mutations of F42 or R38 were involved in T2U0.E44-26 to generate IL-2 variants.

[5] = molecular target: T2, Human IL-2Rα/β/γ complex (high affinity …); experiment: FACS, MJ20 cells
Protocol: as §3

[6] = molecular target: T1, Human IL-2Rβ/γ (intermediate affinity …); experiment: FACS, HH cells
In short: (§4)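 Surface binding of IL-2/Fc fusion proteins at 4° C. (30 min, no internalization) on lymphoma lines HH (CD122/CD132 only), NK92 and MJ20 (plus CD25); secondary PE-anti-human Fc; MFI by FACS.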

[7] = molecular target: T1, Human IL-2Rβ/γ (intermediate affinity …); experiment: FACS, HH cells; EC50 fold vs T2U0.E44-1
In short: as §4

[8] = molecular target: T3, W3XX115-hPro1.ECD.His, IL2Rα ECD; experiment: SPR Biacore 8K
Protocol: as §1, §2

[9] = molecular target: T4, W369-hPro2.ECD.His, IL2Rβ ECD (human, UniProt P14784 27-239); experiment: SPR Biacore 8K; set-up for IL-2Rβ not described
T4 construct: Entry includes linker and C-terminal 6xHis tag; also called CD122
T4 sequence: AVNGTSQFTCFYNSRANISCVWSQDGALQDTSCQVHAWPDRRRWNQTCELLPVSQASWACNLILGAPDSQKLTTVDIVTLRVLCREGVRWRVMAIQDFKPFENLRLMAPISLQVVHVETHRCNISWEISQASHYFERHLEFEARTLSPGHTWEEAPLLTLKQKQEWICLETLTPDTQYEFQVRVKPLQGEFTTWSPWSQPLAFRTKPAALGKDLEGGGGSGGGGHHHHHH

Human CD8+ T Potency EC50 (STAT5 phosphorylation) [1]: 149 nM
Human CD8+ T Potency reduction [1]: 41 fold
Human Treg Potency EC50 (STAT5 phosphorylation) [2]: 0.42 nM
Human Treg Potency reduction [2]: 302 fold
Kd [3]: 1030 nM
Affinity reduction [4]: 13.7 fold
EC50 [5]: 627 nM
EC50 [6]: 760 nM
Affinity reduction [7]: 15 fold
fold affinity reduction compared to T2U0.E44-1 [8]: ~10 fold
Kd [9]: 5870 nM
B1: W3XX115-T2U0.E44-33.uIgG4V322 (Fc fusion)
chain: APTSSSTKKTQLQLEHLLLDLQMILNGINNYKNPKLTWMLTFKFYMPKKATELKHLQCLEEELKPLEEVLNLAQSKNFHLRPRDLISNINVIVLELKGSETTFMCEYADETATIVEFLNRWITFCQSILESKYGPPCPPCPAPEAAGGPSVFLFPPKPKDTLMISRTPEVTCVVVDVSQEDPEVQFNWYVDGVEVHNAKTKPREEQFNSTYRVVSVLTVLHQDWLNGKEYKCKVSNKGLPSSIEKTISKAKGQPREPQVYTLPPCQEEMTKNQVSLWCLVKGFYPSDIAVEWESNGQPENNYKTTPPVLDSDGSFFLYSRLTVDKSRWQEGNVFSCSVMHEALHNHYTQKSLSLSLG
heavy: EIQLQQSGPELVKPGASVKVSCKASGYSFTDYNMYWVKQSHGESLEWIGYIDPYNGGTRYNQKFKGKATLTVDKSSSTAFMHLNSLTSEDSAVYYCARNGHWDGAWFAYWGQGTLVTVSAASTKGPSVFPLAPCSRSTSESTAALGCLVKDYFPEPVTVSWNSGALTSGVHTFPAVLQSSGLYSLSSVVTVPSSSLGTKTYTCNVDHKPSNTKVDKRVESKYGPPCPPCPAPEAAGGPSVFLFPPKPKDTLMISRTPEVTCVVVDVSQEDPEVQFNWYVDGVEVHNAKTKPREEQFNSTYRVVSVLTVLHQDWLNGKEYKCKVSNKGLPSSIEKTISKAKGQPREPQVCTLPPSQEEMTKNQVSLSCAVKGFYPSDIAVEWESNGQPENNYKTTPPVLDSDGSFFLVSRLTVDKSRWQEGNVFSCSVMHEALHNHYTQKSLSLSLG
light: DIQMNQSPSSLSASLGDTITITCHASQNINVWLSWYQQKPGNIPKLLIYKASNLHTGVPSRFSGSRSGTGFTLTISSLQPEDIATYYCHQGQSYPFTFGSGTKLEIKRTVAAPSVFIFPPSDEQLKSGTASVVCLLNNFYPREAKVQWKVDNALQSGNSQESVTEQDSKDSTYSLSSTLTLSKADYEKHKVYACEVTHQGLSSPVTKSFNRGEC

From patent publication US20250000946A1 (WUXI BIOLOGICS IRELAND, published 2025)
